According to patent US20210095265A1 (WISCONSIN ALUMNI RESEARCH FOUNDATION, published 2021):
Where a chain is given by its changes, count along the chain named. Names and notes keep the numbering of the source. Each block holds one binder with its values, some of them ahead of it.

Assays:
[1] = target: T1, Saro_2873 polypeptide made by cell-free synthesis in its native form
T1 chain: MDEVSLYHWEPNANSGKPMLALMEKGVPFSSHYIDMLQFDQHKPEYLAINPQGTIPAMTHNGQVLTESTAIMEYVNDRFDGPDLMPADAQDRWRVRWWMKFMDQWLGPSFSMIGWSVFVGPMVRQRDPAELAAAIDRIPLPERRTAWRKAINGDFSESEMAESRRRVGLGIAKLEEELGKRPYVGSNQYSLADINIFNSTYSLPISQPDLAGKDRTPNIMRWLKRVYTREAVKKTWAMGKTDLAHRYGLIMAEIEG

[2] = target: T2, Saro_2873 N14A (subunit of BaeA variant 3:N14A) (Novosphingobium aromaticivorans); test: gel permeation chromatography
T2 construct: This subunit is untagged; the tag is on Saro_2872
T2 chain: T1 chain with N14A

[3] = target: T3, Saro_2873 S15A (subunit of BaeA variants 3:S15A and 2:S14A/3:S15A) (Novosphingobium aromaticivorans); test: gel permeation chromatography
T3 chain: T1 chain with S15A

[4] = target: T4, Saro_2873 polypeptide from Novosphingobium aromaticivorans (subunit of BaeA), co-expressed with Saro_2872 in … (Novosphingobium aromaticivorans); test: gel permeation chromatography
T4 construct: Co-expressed with Saro_2872; also called Saro_2873 subunit; second polypeptide of BaeA
T4 chain: T1 chain

[5] = target: the molecule itself; test: X-ray crystal structures (pdb 5uuo, 5uun); two copies of the protein per asymmetric unit
Text: Diffraction data were obtained at the GM/CA beam-line at Argonne National Laboratory with an Eiger 16M detector (Casanas et al. 2016). Data were collected on the ammonium acetate and ammonium sulfate crystal forms using 1.033 Å (for 1.45 Å resolution) or 0.7749 Å (for 1.25 Å resolution) X-rays, respectively. Diffraction data were reduced using XDS (Kabsch 2010). Both crystals belonged to space group P2₁2₁2₁ with a predicted solvent content of 60%. The structure was solved by molecular replacement with Phaser (McCoy et al. 2007) in the Phenix suite (Adams et al. 2010), using a search model based on PDB ID 3C8E:A (ecYghU (Stourman et al. 2011)) modified with phenix.sculptor (Bunkóczi et al. 2011), based on primary sequence alignment. […] Phenix.refine (Afonine et al. 2012) and COOT (Emsley et al. 2004) were alternatively used to refine the structure and fit the model to electron density maps.

binding result [2]: binds
binding result [3]: binds
B1: Saro_2872 polypeptide from Novosphingobium aromaticivorans (subunit of BaeA), co-expressed with Saro_2873 in E. coli (enzyme)
chain: MSALLYHGEPNGASLTVLAALAETGLDIECRRIDLLAGERHSLPGIVDPVALDLSIEGEGPVLVIDGEAMTESVFLAQYLDEAAGGVGLQPTDAYARWEMMMWCRQITERLSPAAALLGNLATSQSAIAAIPAEDFAILAARIVSDDLRERWQALNDDAVNAAQVADSETKVAAAVDRCEKQLGDGREWLMGTFSIADLVTYSWLAGMEPLRPAAFADAPLVKAWLARTAARPCVQAALARATISEPLRAWAPGPEINRWG
notes: Co-expressed with Saro_2873 from one pVP302K vector; In the H2872 construct Saro_2872 lacks its native start codon; also called Saro_2872 subunit; first polypeptide of BaeA
conversion of racemic MPHPV into GS-HPV and guaiacol (HPLC) [1]: half of the MPHPV was converted into GS-HPV and guaiacol

binding result [4]: binds
binding result [3]: binds
B2: Saro_2872 S14A (subunit of BaeA variants 2:S14A and 2:S14A/3:S15A) (enzyme)
chain: B1 chain with S14A
notes: The N-terminal His8-tag and Tev site are on this subunit, and its native start codon is missing; also called H2872(S14A)

B3: recombinant NaGSTNu (Nu-class glutathione-S-transferase of Novosphingobium aromaticivorans DSM 12444, Saro_2595), one subunit (enzyme)
chain: SAIAGMSSEYVPPKVWKWDKANGGAFASVNRPVAGPTSERELPVGKHPFQVYSLGTPNGQKATIMLEELLQLGFSEAEYDAWLIKIFEGDQFTSGFVDINPNSKIPAMVDRSGPEPFRVFESGAILMHLAEKFGVFLPTSGPARAECLSWLFWQVGSAPFIGGGFGHFYNYAPIKIEYAIDRYAMETKRLFDVANRRLAESRYLAGDEYTIADLATYTWFGNIYRGEAYGEAATFLSMHEYEHVGRWVGEIDARPGVLRGRLVNSSKGLAERHDASDFDALPPESLQAIVKGF
notes: also called Saro_2595 product; pdb 5uuo
binding result [5]: binds
